We go through one substance from patent publication US20210269790A1.

The target of the experiment is FKBP12-Gag^HIV fusion protein (FKBP12 domain added to the N-terminal of Gag of HIV) (human immunodeficiency virus (HIV)). Description: cell-based or functional assay. As to conditions: scale: times.

As for “luciferase protein fused with an FRB domain (FRB-Luc) (from UniProt P42345 2021-2113)”, the luciferase activity in HEK293T cells 16 hours after introduction of VLPs stood at 12.
